From US20220155286

Tests used:
[1] = molecular target: BCL6 (B-Cell Lymphoma 6) S-Peptide micro-tag construct
[2] = molecular target: MTH1-10aa-S-tag fusion protein
[3] = molecular target: MTH1-3aa-S-tag fusion protein
[4] = molecular target: MTH1-S-tag fusion protein (no linker between MTH1 and the S-tag peptide)

B1: His tagged RNase donor protein (S protein) (protein)
chain: MSSSNYCNQMMKSRNLTKDRCKPVNTFVHESLADVQAVCSQKNVACKNGQTNCYQSYSTMSITDCRETGSSKYPNCAYKTTQANKHIIVACEGNPYVPVHFDASVHHHHHH
- fluorescence signal (RLU/min) after heat challenge [1]: the micro-tag construct was denatured in the heat challenge and there was less micro-tag available for enzyme complementation resulting in lower fluorescence signal
- S protein concentration at which the fluorescent signal starts to saturate [2]: S protein concentration started to saturate signal at about 1-2 ng/ul S protein
- fluorescent signal (cleavage of the FRET substrate by complemented RNase S), 50 ug lysate, thermal gradient [2]: there was no significant effect of spacer length on fluorescent signal
- S protein concentration at which the fluorescent signal starts to saturate [3]: S protein concentration started to saturate signal at about 1-2 ng/ul S protein
- fluorescence increase (RLU change per minute) [3]: detected fluorescence increase that was directly proportional to the amount of micro-tagged protein in the reaction
- fluorescent signal (cleavage of the FRET substrate by complemented RNase S), 50 ug lysate, thermal gradient [3]: there was no significant effect of spacer length on fluorescent signal
- kinetic trace of the S-tag (Micro-tag) fluorescence signal over 20 minutes [3]: A kinetic trace of the development of the S-tag (Micro-tag) fluorescence signal over the course of 20 minutes
- S protein concentration at which the fluorescent signal starts to saturate [4]: S protein concentration started to saturate signal at about 1-2 ng/ul S protein
- fluorescent signal (cleavage of the FRET substrate by complemented RNase S), 50 ug lysate, thermal gradient [4]: there was no significant effect of spacer length on fluorescent signal
